Data on two molecules can be found in patent US20150297672A1 (TXP PHARMA, published 2015).

Where no end group is shown, it is not given here. [ ]: non-standard residue; d: D form.

Test [1] deals with T1, human melanocortin receptor type 1 (MC1r) (human, UniProt Q01726 1-317).
T1 construct: whole, on cells; also called MCr1; MCR1

The target in test [2] is T1, human melanocortin receptor type 1 …. In words: cell-based or functional assay.

T1 sequence (Q01726 whole entry): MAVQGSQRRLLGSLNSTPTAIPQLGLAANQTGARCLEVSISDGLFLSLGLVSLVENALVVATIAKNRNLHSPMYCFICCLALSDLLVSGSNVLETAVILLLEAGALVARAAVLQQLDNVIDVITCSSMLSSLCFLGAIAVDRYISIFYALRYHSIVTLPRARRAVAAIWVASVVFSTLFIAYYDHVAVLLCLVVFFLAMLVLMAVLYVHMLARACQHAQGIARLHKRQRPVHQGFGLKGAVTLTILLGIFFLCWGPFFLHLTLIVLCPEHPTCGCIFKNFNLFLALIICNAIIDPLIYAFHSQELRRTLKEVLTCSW

B1: γ-MSH analogue #2: Ac-(Ac-Lys-Lys-)Lys-Tyr-Val-Met-Gly-His-Phe-Arg-(D-Trp)-Asp-Arg-Phe-Gly-NH2 (D-Trp version of SEQ ID NO:8) (peptide)
peptide: Ac-KYVMGHFR[dW]DRFG-NH2
chain: Ac-Lys-Lys
modifications: also: bond at chain A 1 to a chain's C-terminus via isopeptide: branch C-terminus to Lys1 ε-amine
notes: Branched peptide; the second chain is the side branch on Lys1
The term IC50 denotes the concentration that inhibits the measured activity by half. For B1, the IC50 in test [1] turned out to be 0.606 nM.

B2: α-MSH analogue #1: Ac-(Ac-Lys-Lys-)Lys-Ser-Tyr-Ser-Met-Glu-His-Phe-Arg-Trp-Gly-Lys-Pro-Val-NH2 (Ac-(Ac-Lys-Lys-)Lys-SEQ ID NO:2) (peptide)
peptide: Ac-KSYSMEHFRWGKPV-NH2
chain: Ac-Lys-Lys
modifications: also: bond at chain A 1 to a chain's C-terminus via isopeptide: branch C-terminus to Lys1 ε-amine
notes: Branched peptide
For the molecule B2, in test [2], the “EC50, cAMP production” value came out at 0.2 nM. Further, half-maximal inhibition in test [1] (IC50) was put at 0.0645 nM.
